# Data: patent US20150225704A1 (UNIVERSITY OF BRITISH COLUMBIA, published 2015)
# T1: FLAG-MKK7 wt (UniProt O14733 1-419, limits assumed)
# T1 construct: Bought from Addgene; also called MKK7 wildtype; not shown: FLAG tag
# T1 sequence (looked up): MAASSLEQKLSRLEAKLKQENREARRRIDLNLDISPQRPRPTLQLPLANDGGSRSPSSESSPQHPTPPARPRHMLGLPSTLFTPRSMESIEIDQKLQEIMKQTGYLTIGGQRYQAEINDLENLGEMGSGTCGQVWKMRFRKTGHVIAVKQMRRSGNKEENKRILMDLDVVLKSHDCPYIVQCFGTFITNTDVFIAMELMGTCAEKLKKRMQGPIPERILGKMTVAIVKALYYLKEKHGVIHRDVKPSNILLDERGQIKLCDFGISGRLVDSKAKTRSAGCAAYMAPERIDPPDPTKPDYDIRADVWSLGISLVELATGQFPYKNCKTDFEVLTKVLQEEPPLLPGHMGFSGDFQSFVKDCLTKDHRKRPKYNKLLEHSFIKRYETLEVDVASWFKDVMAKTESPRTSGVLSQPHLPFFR
# B1: GFP-JNK3 (c-jun N-terminal kinase 3) expressed in HEK293 cells (enzyme, UniProt P53779 1-464, looked up)
# chain: MSLHFLYYCSEPTLDVKIAFCQGFDKQVDVSYIAKHYNMSKSKVDNQFYSVEVGDSTFTVLKRYQNLKPIGSGAQGIVCAAYDAVLDRNVAIKKLSRPFQNQTHAKRAYRELVLMKCVNHKNIISLLNVFTPQKTLEEFQDVYLVMELMDANLCQVIQMELDHERMSYLLYQMLCGIKHLHSAGIIHRDLKPSNIVVKSDCTLKILDFGLARTAGTSFMMTPYVVTRYYRAPEVILGMGYKENVDIWSVGCIMGEMVRHKILFPGRDYIDQWNKVIEQLGTPCPEFMKKLQPTVRNYVENRPKYAGLTFPKLFPDSLFPADSEHNKLKASQARDLLSKMLVIDPAKRISVDDALQHPYINVWYDPAEVEAPPPQIYDKQLDEREHTIEEWKELIYKEVMNSEEKTKNGVVKGQPSPSGAAVNSSESLPPSSSVNDISSMSTDQTLASDTDSSLEASAGPLGCCR
# notes: not shown: GFP tag and linker of the gifted construct (Song et al. 2006)
# Legend:
# [1] = biological target: T2, endogenous zD17 of rat cortical neuronal cultures and rat brain (rat, UniProt E9PTT0 1-622); experiment: co-immunoprecipitation, neuronal cultures treated with NMDA
# T2 construct: Co-immunoprecipitated from lysates of Wistar rat cortical cultures or Sprague-Dawley rat brain
# T2 sequence (E9PTT0 whole entry): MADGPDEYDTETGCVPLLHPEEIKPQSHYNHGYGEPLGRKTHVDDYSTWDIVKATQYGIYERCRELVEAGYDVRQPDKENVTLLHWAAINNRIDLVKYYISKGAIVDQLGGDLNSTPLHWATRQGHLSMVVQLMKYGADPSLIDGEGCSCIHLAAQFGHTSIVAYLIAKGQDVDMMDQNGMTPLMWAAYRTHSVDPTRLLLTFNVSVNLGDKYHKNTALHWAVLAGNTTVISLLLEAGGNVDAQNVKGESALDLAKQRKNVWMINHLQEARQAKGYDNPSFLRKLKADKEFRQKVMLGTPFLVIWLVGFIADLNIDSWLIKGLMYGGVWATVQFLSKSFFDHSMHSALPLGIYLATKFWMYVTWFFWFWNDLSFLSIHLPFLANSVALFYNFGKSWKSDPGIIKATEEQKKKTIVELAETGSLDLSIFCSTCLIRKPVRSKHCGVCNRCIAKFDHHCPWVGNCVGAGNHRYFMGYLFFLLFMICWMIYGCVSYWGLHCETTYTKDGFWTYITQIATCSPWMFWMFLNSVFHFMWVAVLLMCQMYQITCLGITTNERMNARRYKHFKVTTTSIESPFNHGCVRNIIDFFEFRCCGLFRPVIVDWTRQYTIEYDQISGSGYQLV
# [2] = biological target: T2, endogenous zD17 of rat cortical …; experiment: co-immunoprecipitation, neuronal cultures treated with TNF-α (50 ng/ml, 6 h)
# Protocol: (§1) For co-immunoprecipitation, cultured cells were washed with ice-cold PBS followed by incubation with 0.5 ml Gentle Lysis Buffer (GLB) containing 25 mM Tris-HCl (pH 7.4), 2 mM EDTA, 1 mM EGTA, 10 mM NaCl, 0.5% Triton X-100 and 10% Glycerol supplemented with the Complete Protease Inhibitor Tablets (Roche Applied Science™, Indianapolis, Ind., USA) and 1 mM PMSF. Total protein concentration was determined with the BioRad™ Protein Assay kit. Lysates were first precleaned by incubating with Protein A-Sepharose beads (Roche Applied Science™) for 1 h at 4° C., followed by incubation with indicated antibodies (>16 h at 4° C.) and protein A Sepharose bead (2 h at 4° C.). Lysates of rat brain tissues were precleaned with IgG and protein A-beads. […] The relative intensities of the bands on immunoblots were analyzed and quantified using Image J™ (NIH).
# [3] = biological target: T2, endogenous zD17 of rat cortical …; experiment: co-immunoprecipitation, neuronal cultures treated with IL-1β (10 ng/ml, 16 h)
# Protocol: as §1
# [4] = biological target: T2, endogenous zD17 of rat cortical …; experiment: co-immunoprecipitation, neuronal cultures treated with glutamate
# [5] = biological target: T1, FLAG-MKK7 wt; experiment: co-immunoprecipitation, with against without zD17
# Protocol: as §1
# [6] = biological target: B1; experiment: co-immunoprecipitation, HEK293 cells
# Protocol: as §1
# [7] = biological target: T3, myc-tagged full-length palmitoyl acyl transferase zinc-finger DHHC type containing 17 (zD17) (UniProt Q8IUH5 1-632); experiment: co-immunoprecipitation, HEK293 cells
# T3 construct: range 1-632; Expressed in HEK293 cells (myc-zD17) or purified from E. coli as GST-myc-zD17 and freed of GST with thrombin; also called myc-zD17; zD17 wildtype
# T3 sequence (Q8IUH5 whole entry): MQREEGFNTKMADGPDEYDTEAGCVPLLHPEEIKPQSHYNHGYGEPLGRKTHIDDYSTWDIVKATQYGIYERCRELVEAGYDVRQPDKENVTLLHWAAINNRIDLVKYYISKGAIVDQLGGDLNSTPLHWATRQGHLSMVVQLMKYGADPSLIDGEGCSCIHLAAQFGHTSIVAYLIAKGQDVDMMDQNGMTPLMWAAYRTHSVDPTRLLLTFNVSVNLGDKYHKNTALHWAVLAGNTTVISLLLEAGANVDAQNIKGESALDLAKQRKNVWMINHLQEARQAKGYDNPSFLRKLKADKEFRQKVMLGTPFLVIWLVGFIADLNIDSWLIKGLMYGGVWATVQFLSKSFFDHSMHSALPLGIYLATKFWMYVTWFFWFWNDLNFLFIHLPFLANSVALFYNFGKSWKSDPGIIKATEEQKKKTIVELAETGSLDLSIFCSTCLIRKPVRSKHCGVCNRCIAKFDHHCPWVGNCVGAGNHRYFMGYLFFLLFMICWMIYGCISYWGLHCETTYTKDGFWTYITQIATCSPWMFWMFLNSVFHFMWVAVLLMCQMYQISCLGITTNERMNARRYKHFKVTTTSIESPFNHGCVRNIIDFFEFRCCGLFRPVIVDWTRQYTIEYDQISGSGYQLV
# Protocol: as §1
binder,measurement,setting,value
"endogenous JNK3 of rat cortical neuronal cultures and rat brain (enzyme, UniProt P49187 1-464, looked up) MSLHFLYYCSEPTLDVKIAFCQGFDKHVDVSSVVKHYNMSKSKVDNQFYSVEVGDSTFTVLKRYQNLKPIGSGAQGIVCAAYDAVLDRNVAIKKLSRPFQNQTHAKRAYRELVLMKCVNHKNIISLLNVFTPQKTLEEFQDVYLVMELMDANLCQVIQMELDHERMSYLLYQMLCGIKHLHSAGIIHRDLKPSNIVVKSDCTLKILDFGLARTAGTSFMMTPYVVTRYYRAPEVILGMGYKENVDIWSVGCIMGEMVRHKILFPGRDYIDQWNKVIEQLGTPCPEFMKKLQPTVRNYVENRPKYAGLTFPKLFPDSLFPADSEHNKLKASQARDLLSKMLVIDPAKRISVDDALQHPYINVWYDPAEVEAPPPQIYDKQLDEREHTIEEWKELIYKEVMNSEEKTKNGVVKGQPSPSGAAVNSSESLPPSSSVNDISSMSTDQTLASDTDSSLEASAGPLGCCR",fold increase of zD17 interaction compared with control,[1],2.5 fold
same,fold increase of zD17-JNK3 interaction against control,[2],1.53 fold
same,fold increase of zD17-JNK3 interaction against control,[3],1.88 fold
same,fold increase of zD17 interaction compared with control,[4],2.6 fold
"endogenous JNK1 of rat cortical neuronal cultures (enzyme, UniProt P49185 1-411, looked up) MSRSKRDNNFYSVEIADSTFTVLKRYQNLKPIGSGAQGIVCAAYDAILERNVAIKKLSRPFQNQTHAKRAYRELVLMKCVNHKNIIGLLNVFTPQKSLEEFQDVYIVMELMDANLCQVIQMELDHERMSYLLYQMLCGIKHLHSAGIIHRDLKPSNIVVKSDCTLKILDFGLARTAGTSFMMTPYVVTRYYRAPEVILGMGYKENVDLWSVGCIMGEMVCLKILFPGRDYIDQWNKVIEQLGTPCPEFMKKLQPTVRTYVENRPKYAGYSFEKLFPDVLFPADSEHNKLKASQARDLLSKMLVIDASKRISVDEALQHPYINVWYDPSEAEAPPPKIPDKQLDEREHTIEEWKELIYKEVMDLEERTKNGVIRGQPSPLGAAVINGSQHPVSSPSVNDMSSMSTDPTLASD",fold increase of zD17 interaction compared with control,[4],1.4 fold
B1,fold enhancement of the JNK3-MKK7 association in the presence of zD17,[5],2.41 fold
"zD15 (palmitoyl acyl transferase) expressed in HEK293 cells (enzyme, UniProt Q96MV8 1-337, looked up, Immunoprecipitated like myc-zD17) MRRGWKMALSGGLRCCRRVLSWVPVLVIVLVVLWSYYAYVFELCLVTVLSPAEKVIYLILYHAIFVFFTWTYWKSIFTLPQQPNQKFHLSYTDKERYENEERPEVQKQMLVDMAKKLPVYTRTGSGAVRFCDRCHLIKPDRCHHCSVCAMCVLKMDHHCPWVNNCIGFSNYKFFLQFLAYSVLYCLYIATTVFSYFIKYWRGELPSVRSKFHVLFLLFVACMFFVSLVILFGYHCWLVSRNKTTLEAFCTPVFTSGPEKNGFNLGFIKNIQQVFGDKKKFWLIPIGSSPGDGHSFPMRSMNESQNPLLANEETWEDNEDDNQDYPEGSSSLAVETET",binding result,[6],no binding
"zD20 (palmitoyl acyl transferase) expressed in HEK293 cells (enzyme, UniProt Q5W0Z9 1-365, looked up, Immunoprecipitated like myc-zD17) MAPWTLWRCCQRVVGWVPVLFITFVVVWSYYAYVVELCVFTIFGNEENGKTVVYLVAFHLFFVMFVWSYWMTIFTSPASPSKEFYLSNSEKERYEKEFSQERQQEILRRAARALPIYTTSASKTIRYCEKCQLIKPDRAHHCSACDSCILKMDHHCPWVNNCVGFSNYKFFLLFLLYSLLYCLFVAATVLEYFIKFWTNELTDTRAKFHVLFLFFVSAMFFISVLSLFSYHCWLVGKNRTTIESFRAPTFSYGPDGNGFSLGCSKNWRQVFGDEKKYWLLPIFSSLGDGCSFPTRLVGMDPEQASVTNQNEYARSSGSNQPFPIKPLSESKNRLLDSESQWLENGAEEGIVKSGTNNHVTVAIEN",binding result,[6],no binding
"FLAG-MKK6 (enzyme, UniProt P52564 1-334, looked up, Bought from Addgene; not shown: FLAG tag) MSQSKGKKRNPGLKIPKEAFEQPQTSSTPPRDLDSKACISIGNQNFEVKADDLEPIMELGRGAYGVVEKMRHVPSGQIMAVKRIRATVNSQEQKRLLMDLDISMRTVDCPFTVTFYGALFREGDVWICMELMDTSLDKFYKQVIDKGQTIPEDILGKIAVSIVKALEHLHSKLSVIHRDVKPSNVLINALGQVKMCDFGISGYLVDSVAKTIDAGCKPYMAPERINPELNQKGYSVKSDIWSLGITMIELAILRFPYDSWGTPFQQLKQVVEEPSPQLPADKFSAEFVDFTSQCLKKNSKERPTYPELMQHPFFTLHESKGTDVASFVKLILGD",binding result,[7],no binding
